The IC50 is the midpoint of a concentration-inhibition curve.

Test [1] has as its target T1, human IL-1α (human, UniProt P01583 113-271).
T1 construct: also called IL-1alpha; hIL-1α
T1 sequence (looked up): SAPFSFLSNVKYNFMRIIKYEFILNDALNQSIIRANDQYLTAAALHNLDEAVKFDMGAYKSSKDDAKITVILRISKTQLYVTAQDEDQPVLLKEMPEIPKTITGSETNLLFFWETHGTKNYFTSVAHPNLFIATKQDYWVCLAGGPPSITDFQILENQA
Briefly: Table 62 IC50; RBA presumed.

In test [2] the target is T1, human IL-1α. The test can be described thus: cell-based or functional assay.

B1: ABT1-146 (other)
VL: DIQMTQSPSSLSASVGDRVTITCRASQNIKTFLHWYQQKPGKAPKLLIYRVSHLQSGVPSRFSGSGSGTDFTLTISSLQPEDFATYYCQQEYRIPLTFGQGTKVEIKR
notes: VK dAb
B1 displayed an IC50 in the test with human IL-1α [1] above 500 nM.

B2: ABT1-145 (other)
VL: DIQMTQSPSSLSASVGDRVTITCRASQDIDDGLAWYQQKPGKAPKLLIYRTSRLQSGVPSRFSGSGSGTDFTLTISSLQPEDFATYYCQPTWLPPCTFGQGTKVEIKR
notes: VK dAb
In the test with human IL-1α [1], B2 returned an IC50 above 500 nM.

B3: ABT1-11 (other)
VL: DIQMTQSPSSLSASVGDRVTITCRASQSIPYNLRWYQQKPGKAPKLLIYSASRLQSGVPSRFSGSGSGTDFTLTISSLQPEDFATYYCQQGYSWPMTFGQGTKVEIKR
Regarding B3, the ND50 with human IL-1α [2] was above 20000 nM.

B4: ABT1-95-137 (other)
VL: DIQMTQSPSSLSASVGDRVTITCRASQPIVRNLRWYQQKPGKAPKLLIYSSSYLEPGVPSRFSGSGSGTDFTLTISSLQPEDFATYHCQQGYLWPVTFGQGTKVEIKR
Turning to B4, the ND50 with human IL-1α [2] came out at 0.09 nM.

B5: ABT1-95-51 (other)
VL: DIQMTQSPSSLSASVGDRVTITCRASQPIIRNLRWYQQKPGKAPKLLIYSSSYLEPGVPSRFSGSGSGTDFTLTISSLQPEDFATYHCQQGYRWPVTFGQGTKVEIKR
In turn, B5 returned an ND50 with human IL-1α [2] of 615 nM.

B6: ABT1-95-135 (other)
VL: DIQMTQSPSSLSASVGDRVTITCRASQPIVRNLRWYQQKPGKAPKLLIYSSSYLEPGVPSRFSGSGSGTDFTLTISSLQPEDFATYHCQQGYSWPVTFGQGTKVEIKR
Molecule B6 yielded an ND50 with human IL-1α [2] of 0.1 nM.

B7: ABT1-3 (other)
VL: DIQMTQSPSSLSASVGDRVTITCRASQSIWTELKWYQQKPGKAPKLLIYGASLLQSGVPSRFSGSGSGTDFTLTISSLQPEDFATYYCQQFAYFPFTFGQGTKVEIKR
In the test with human IL-1α [2], B7 had an ND50 of 1000 nM.

B8: ABT1-10 (other)
VL: DIQMTQSPSSLSASVGDRVTITCRASQSIVPNLRWYQQKPGKAPKLLIYGASTLQSGVPSRFSGSGSGTDFTLTISSLQPEDFATYYCQQGYVYPGTFGQGTKVEIKR
Take B8: in the test with human IL-1α [2], the ND50 was above 20000 nM.

B9: ABT1-9 (other)
VL: DIQMTQSPSSLSASVGDRVTITCRASQSIGSSLLWYQQKPGKAPKLLIYLASRLQSGVPSRFSGSGSGTDFTLTISSLQPEDFATYYCQQFRSTPNTFGQGTKVEIKR
Take B9: the ND50 in the test with human IL-1α [2] was found to be 4000 nM.

B10: ABT1-172 (other)
VL: DIQMTQSPSSLSASVGDRVTITCRASQRIRNGLEWYQQKPGKAPKLLIWGSSRLQSGVPSRFSGSGSGTDFTLTISSLQPEDFATYYCAQTVWGPATFGQGTKVEIKR
notes: VK dAb
As to B10, the IC50 with human IL-1α [1] was above 1000 nM.

B11: ABT1-23 (other)
VH: EVQLLESGGGLVQPGGSLRLSCAASGFTFSSYPMEWVRQAPGKGLEWVSAIAWPGSMTYYADSVKGRFTISRDNSKNTLYLQMNSLRAEDTAVYYCAKTHRLFDYWGQGTLVTVSS
As to B11, the ND50 in the test with human IL-1α [2] came to 5000 nM.

B12: ABT1-22 (other)
VH: EVQLLESGGGLVQPGGSLRLSCAASGFTLKAYNMSWVRQAPGKGLEWVSLISSTGMFTDYADSVKGRFTISRDNSKNTLYLQMNSLRAEDTAVYYCAKWGVRRGLYFDYWGQGTLVTVSS
With B12, the ND50 in the test with human IL-1α [2] was 7000 nM.

B13: ABT1-143 (other)
VL: DIQMTQSPSSLSASVGDRVTITCRASQRIDRHLSWYQQKPGKAPKLLIYKTSKLQSGVPSRFSGSGSGTDFTLTISSLQPEDFATYYCQQLHAKPFTFGQGTKVEIKR
notes: VK dAb
In the test with human IL-1α [1], B13 had a half-inhibitory concentration (IC50) above 500 nM.

B14: ABT1-95-133 (other)
VL: DIQMTQSPSSLSASVGDRVTITCRASQPIVRNLRWYQQKPGKAPKLLIYSSSYLEPGVPSRFSGSGSGTDFTLTISSLQPEDFATYHCRQGYRWPVTFGQGTKVEIKR
The molecule B14 displayed an ND50 in the test with human IL-1α [2] of 0.05 nM.

B15: ABT1-95-164 (other)
VL: DIQMTQSPSSLSASVGDRVTITCRASQPGVRNLRWYQQKPGKAPKLLIYSSSYLEPGVPSRFSGSGSGTDFTLTISSLQPEDFATYHCQQGYRWPVTFGQGTKVEIKR
B15: the ND50 with human IL-1α [2] was found to be 0.15 nM.

B16: ABT1-95-162 (other)
VL: DIQMTQSPSSLSASVGDRVTITCRASKPIVRNLRWYQQKPGKAPKLLIYSSSYLEPGVPSRFSGSGSGTDFTLTISSLQPEDFATYHCQQGYRWPVTFGQGTKVEIKR
In turn, B16 yielded an ND50 with human IL-1α [2] of 0.186 nM.

B17: ABT1-95-136 (other)
VL: DIQMTQSPSSLSASVGDRVTITCRASQPIVRNLRWYQQKPGKAPKLLIYSSSYLEPGVPSRFSGSGSGTDFTLTISSLHPEDLATYHCQQGYGWPVTFGQGTKVEIKR
Regarding B17, the ND50 with human IL-1α [2] worked out at 0.1 nM.

B18: ABT1-95-134 (other)
VL: DIQMTQSPSSLSASVGDRVTITCRASQPIVRNLRWYQQKPGKAPKLLIYSSSYLEPGVPSRFSGSGSGTDFTLTISSLQPEDFATYHCAQGYRWPVTFGQGTKVEIKR
B18: the ND50 with human IL-1α [2] was 0.075 nM.

B19: ABT1-95-165 (other)
VL: DIQMTQSPSSLSASVGDRVTITCRASQPIVRNMRWYQQKPGKAPKLLIYSSSYLEPGVPSRFSGSGSGTDFTLTISSLQPEDFATYHCQQGYRWPVTFGQGTKVEIKR
Consider B19, for which, in the test with human IL-1α [2], the ND50 stood at 0.391 nM.

B20: ABT1-95-163 (other)
VL: DIQMTQSPSSLSASVGDRVTITCRASRPIVRNLRWYQQKPGKAPKLLIYSSSYLEPGVPSRFSGSGSGTDFTLTISSLQPEDFATYHCQQGYRWPVTFGQGTKVEIKR
On to B20, for which, in the test with human IL-1α [2], the ND50 is 0.05 nM.

B21: ABT1-18 (other)
VL: DIQMTQSPSSLSASVGDRVTITCRASQSIQRWLAWYQQKPGKAPKLLIYFASQLQSGVPSRFSGSGSGTDFTLTISSLQPEDFATYYCQQLLRLPKTFGQGTKVEIKR
As to B21, the ND50 with human IL-1α [2] was above 10000 nM.

B22: ABT1-142 (other)
VL: DIQMTQSPSSLSASVGDRVTITCRASQSINDVLAWYQQKPGKAPRLLIYSASYLQSGVPSRFSGSGSGTDFTLTISSLQPEDFATYYCQQYISLPFTFGQGTKVEIKR
notes: VK dAb
B22 yielded an IC50 with human IL-1α [1] of 200 nM.

B23: ABT1-67 (other)
VL: DIQMTQSPSSLSASVGDRVTITCRASQSIHRSLRWYQQKPGKAPKLLIYHASHLQSGVPSRFSGSGSGTDFTLTISSLQPEDFATYYCQQYKRRPSTFGQGTKVEIKR
In the case of B23, the ND50 with human IL-1α [2] worked out at 0.044 nM.

B24: ABT1-95-181 (other)
VL: DIQMTQSPSSLSASVGDRVTITCRASKPIVRNMRWYQQKPGKAPKLLIYSVSYLEPGVPSRFSGSGSGTDFTLTISSLQPEDFATYHCLQGYRWPPTFGQGTKVEIKR
On to B24, for which the ND50 with human IL-1α [2] worked out at 0.014 nM.

B25: ABT1-155 (other)
VL: DIQMTQSPSSLSASVGDRVTITCRASSPIVANLRWYQQKPGKAPKLLIYAASSLQSGVPSRFSGSGSGTDFTLTISSLQPEDFATYYCTQGYVWPPTFGQGTKVEIKR
In the case of B25, the ND50 with human IL-1α [2] was found to be 20 nM.

B26: ABT1-95-182 (other)
VL: DIQMTQSPSSLSASVGDRVTITCRASKPGVRNLRWYQQKPGKAPKLLIYSVSYLEPGVPSRFSGSGSGTDFTLTISSLQPEDFATYHCLQGYRWPPTFGQGTKVEIKR
In the test with human IL-1α [2], B26 had an ND50 of 0.005 nM.

B27: ABT1-95-177 (other)
VL: DIQMTQSPSSLSASVGDRVTITCRASQPIVRNLRWYQQKPGKAPKLLIYASSYLEPGVPSRFSGSGSGTDFTLTISSLQPEDFATYHCRQGYRWPVTFGQGTKVEIKR
Regarding B27, the ND50 with human IL-1α [2] turned out to be 0.008 nM.

B28: ABT1-95-174 (other)
VL: DIQMTQSPSSLSASVGDRVTITCRASRPIVRNLRWYQQKPGKAPKLLIYSVSYLEPGVPSRFSGSGSGTDFTLTISSLQPEDFATYHCRQGYRWPVTFGQGTKVEIKR
As to B28, the ND50 in the test with human IL-1α [2] is 0.01 nM.

B29: ABT1-95-86 (other)
VL: DIQMTQSPSSLSASVGDRVTITCRASQPIVRNLRWYQQKPGKAPKLLIYSTSYLEPGVPSRFSGSGSGTDFTLTISSLQPEDFATYHCQQGYRWPVTFGQGTKVEIKR
Regarding B29, in the test with human IL-1α [2], the ND50 worked out at 0.2 nM.

B30: ABT1-95-A2 (other)
VL: DIQMTQSPSSLSASVGDRVTITCRILQPPGRNLRWYQQKPGKAPKLLIYSKSFLEPGVPSRFSGSGSGTDFTLTISSLQPEDFATYHCQQGYRWPVTFGQGTKVEIKR
In the test with human IL-1α [2], B30 returned an ND50 of 0.133 nM.

B31: ABT1-221 (other)
VL: DIQMTQSPSSLSASVGDRVTITCRASQDIWPYLMWYQQKPGKAPKLLIYYSSMLQSGVPSRFSGSGSGTDFTLTISSLQPEDFATYYCQQFRRWPYTFGQGTKVEIKR
For the molecule B31, in the test with human IL-1α [2], the ND50 came to 100 nM.

B32: ABT1-144 (other)
VL: DIQMTQSPSSLSASVGDRVTITCRASQRIKKYLAWYQQKPGKAPRLLIYRSSQLQSGVPSRFSGSGSGTDFTLTISSLQPEDFATYYCQQSFKRPVTFGQGTKVEIKR
notes: VK dAb
Molecule B32 yielded an IC50 in the test with human IL-1α [1] of 100 nM.

B33: ABT1-159 (other)
VL: DIQMTQSPSSLSASVGDRVTITCRASSPIGMDLFWYQQKPGKAPRLLIDGVSGLQSGVPSRFSGSGSGTDFTLTISSLQPEDFATYYCSQHWPAPLTFGQGTKVEIKR
notes: VK dAb
Regarding B33, the IC50 with human IL-1α [1] was 200 nM.

B34: ABT1-20 (other)
VH: EVQLLETGGGLVQPGGSLRLSCAASGFTFTPYRMGWVRQAPGKGLEWVSHIGIWGANTYYADSVKGRFTISRDNSKNTLYLQMNSLRAEDTAVYYCAKHPRPFDYWGQGTLVTVSS
As for B34, the ND50 in the test with human IL-1α [2] came out at 1000 nM.

Values taken from US20090291081A1 (AbbVie / Abbott, published 2009).
